# From the nanobody polyreactivity screen of Harvey et al. (2022)
# Assay: yeast display, Sf9 membrane polyspecificity reagent, FACS + sequencing; frameworks hold sequencing errors
# In short: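 Using colony PCR, genes from sorted yeast display clones were amplified, then sequenced on MiSeq at 2 × 250 and filtered by CDR length. The clones had been stained with 10% biotinylated, detergent-solubilized Sf9 membrane reagent for 1 hour at 4 °C and sorted by FACS into low and high (top ~1%) gates on anti-HA and streptavidin fluorescence. Polyreactivity labels come from the gate of origin.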
row,Sequence,polyreactivity (PSR sort gate)
1,QVQLVESGGGLVQAGGSLRLSCAASGFIFGSNAMGWYRQAPGKERELVAAISRSGGSTYYADSVKGRFTISRDNAKNTVYLQMNSLKPEDTAVYYCNVVLWPFVYSWWSYDYWGQGTQVTVSS,high polyreactivity
2,QVQLVESGGGLVQAGGSLRLSCAASGFIFGSYAMGWYRQAPGKERELVAAISYRGGTTYYADSVKGRFTISRDNAKNTVYLQMNSLKPEDTAVYYCAADSPENRYNYWGQGTQVTLSS,high polyreactivity
3,QVQLVESGGGLVQAGGSLRLSCAASGFIFGTNAMGWYRQAPGKERELVAAITSRGGSTYYADSVKGRFTISRDNAKNTVYLQMNSLKPEDTAVYYCAADKPRSYYYWGQGTQVTVSS,high polyreactivity
4,QVQLVESGGGLVQAGGSLRLSCAASGFIFGTYAMGWYRPAPGKERELVAAITSGGSTYYADSVKGRFTISRDNAKNTVYLQMNSLKPEDTAVYYCAKYHWRLSFSRYPYDYWGQGTQVTVSS,high polyreactivity
5,QVQLVESGGGLVQAGGSLRLSCAASGFIFGTYAMGWYRQAPGKEREFVAAINWGGGRTYYADSVKGRFTISRDNAKNTVYLQMNSLKPEDTAVYYCNKRLIYYRGTYYSRRFDYWGQGTQVTVSS,high polyreactivity
6,QVQLVESGGGLVQAGGSLRLSCAASGFIFGVNAMGWYRQAPGKERELVAAITSTGGRTYYADSVKGRFTISRDNAKNTVYLQMNSLKPEDTAVYYCNKRYRDQYGYDYWGQGTQVTVSS,high polyreactivity
7,QVQLVESGGGLVQAGGSLRLSCAASGFIFGVYAMGWYRQAPGKERELVAAITGRAASTYYADSVKGRFTISRDNAKNTVYLQMNSLKPEDTAVYYCAARKRYRPGERYEYWGQGTQVTVSS,high polyreactivity
8,QVQLVESGGGLVQAGGSLRLSCAASGFIFGVYAMGWYRQAPGKERELVARITYGGGSTYYADSVKGRFTISRDNAKNTVYLQMNSLKPEDTAVYYCAAASWSYPYYYWGQGTQVTVSS,high polyreactivity
9,QVQLVESGGGLVQAGGSLRLSCAASGFIFGVYAMGWYRQAPGNERELVAAISGSGGTTYYADSVKGRFTISRDNAKNTVYLQMNSQKPEDTAVYYCNAAYRVRYIVNYDYWGQGTQVTVSS,low polyreactivity
10,QVQLVESGGGLVQAGGSLRLSCAASGFIFGVYDMGWYRQAPGKERELVAAIDSVGSTYYADSVKGRFTISRDNAKNTVYFQMNSLKPEDTAGYYCNAARSRLYYVKYYYWGQGTQVTVSS,low polyreactivity
11,QVQLVESGGGLVQAGGSLRLSCAASGFIFGWNAMGWYRQAPGKEREFVAAITSSGTSTYYADSVKGRFTISRDNAKNTVYLQMNSLKPEDTAVYYCAADVIFNWLAYSTEYDYWGQGTQVTVSS,low polyreactivity
12,QVQLVESGGGLVQAGGSLRLSCAASGFIFGWNAMGWYRQAPGKERELVAGISRGGRTYYADSVKGRFTISRDNAKNTVYLQMNSLKPEDTAVYYCNKRLYSSSAVDAYGYWGQGTQVTVSS,high polyreactivity
13,QVQLVESGGGLVQAGGSLRLSCAASGFIFGYNAMGWYRQAPGKERELVAAITRSGGRTYYADSVKGRFTISRDNAKNTVYLQMNSLKPEDTSVYYCAASRFATYPRWYDYWGQGTQVTVSS,low polyreactivity
14,QVQLVESGGGLVQAGGSLRLSCAASGFIFGYNAMGWYRQAPGKERELVAAITWIGGTTYYADSVKGRFTISRDNAKNTVYLQMNSLKPEDTAVYYCARQRSYGRSSYSYGYDYWVQGTQVTVSS,high polyreactivity
15,QVQLVESGGGLVQAGGSLRLSCAASGFIFGYYAMGCYTQAPGKERELVARSTSSGGSTYYADSVKGRFTISRDNAKTTVYLQMNSLKPEDTAVYYCAKSPRAPRYMPYGYWGQGSQVTVSS,high polyreactivity
16,QVQLVESGGGLVQAGGSLRLSCAASGFIFGYYAMGWYRQAPGKEREFVAAITKRGGRTYYADSVKGRFTISRDNAKNTVYLQMNSLKPEDTAVYYCNKAIRQDRWVQEEDYWGQGTQVTVSS,high polyreactivity

row,Sequence,polyreactivity (PSR sort gate)
1,QVQLVESGGGLVQAGGSLRLSCAASGFIFGYYAMGWYRQAPGKERELVAAISGDAGRTYYADSVKGRFTISRDNAKNTVYLQMNSLKPEDTAVYYCADADTYKMDYWGQGTQVTVSS,low polyreactivity
2,QVQLVESGGGLVQAGGSLRLSCAASGFIFGYYAMGWYRQAPGKERELVAAISKIGDSTYYADSVKGRFTISRDNAKNTVYLQMNSLKPEDTAVYYCNKVVRNYPRLYGHWGQGTQVTVSS,high polyreactivity
3,QVQLVESGGGLVQAGGSLRLSCAASGFIFGYYAMGWYRQAPGKERELVAAISSRGGSTYYADSVKGRFTISRDNAKNTVYLQMNSLKPEDTAVYYCAVRRVSFRHKFGQYDYWGQGTQVTVSS,high polyreactivity
4,QVQLVESGGGLVQAGGSLRLSCAASGFIFGYYTMGWYRQAPGKERELVAGISYSGGSTYYADSVKGRFTISRDNAKNTVYLQMNSLKPEDTAVYYCNRADYRASYSGQGSYDYWGQGTQVTVSS,high polyreactivity
5,QVQLVESGGGLVQAGGSLRLSCAASGFIFIAYAMGWYRQAPGKERELVAAISKSGGNTYYADSVKGRFTISRDNAKNTVYLQMNSLKPEDTAVYYCATRPGYWRYEYWGQGTQVTVSS,high polyreactivity
6,QVQLVESGGGLVQAGGSLRLSCAASGFIFIYNAMGWFRQAPGKERELVAAISRTGARTYYADSVKGRFTISRDNAKNTVYLQMNSLKPEDTAVYYCAGGVRTRTEEYDYWGQGTKVTVSS,high polyreactivity
7,QVQLVESGGGLVQAGGSLRLSCAASGFIFIYNVMGWYRPAPGKERELVAAINRGGSTKYADSVKGRFTISRDNAKNTVYLQMNSLKPEDTAVYYCAARYDGSRYHYDGYDYWGQGTQVTVSS,low polyreactivity
8,QVQLVESGGGLVQAGGSLRLSCAASGFIFKAYAMGWYRHAPGKERELVAAITSSGGRTYDADSVKGRFTISRDNAKNTVYLQKNSLKPEDTAVYYCNARGVLRTSLYRYDYWGQGTQVTVSS,high polyreactivity
9,QVQLVESGGGLVQAGGSLRLSCAASGFIFKGYAMGWYRQSPGKERELVAVISTSGDRTYYADSVKGRFTISRDNAKNTVYLQMNSLKPEDTAVYYCAAKASPYGGRQKGYDYWGQGTQVTVSS,high polyreactivity
10,QVQLVESGGGLVQAGGSLRLSCAASGFIFKRYAMGWYRQAPGKERELVAAITSGGSTHYADSVKGRFTISRDNAKNTVYLQMNSLKPEDTAVYYCAAVPRVNWSRYVYFWYDYWGQGTQVTVSS,high polyreactivity
11,QVQLVESGGGLVQAGGSLRLSCAASGFIFKTYAMGWYRQAPGKERELVATITRRGGRTYYADSVKGRFTISRDNAKNTVYLQMNSLKPEDTAVYDCAADYALSSLPFDYWGQGTQVTVSS,high polyreactivity
12,QVQLVESGGGLVQAGGSLRLSCAASGFIFKVNAMGWYRQAPGKERELFAAISRRGVTTYYADSVKGRFTISRDNAKNTVYLQMNSLKPEDTAVYYCNRARSYGDTDKLAILADDYWGQGTKVTVSS,high polyreactivity
13,QVQLVESGGGLVQAGGSLRLSCAASGFIFLGNAMGWYRQAPGKERELVASISRGGSTNYADSVKGRFTISRDNAKNTVYLQMTSLKPEDTAVYYCAADLSDKFGYWGQGTQVTVSS,low polyreactivity
14,QVQLVESGGGLVQAGGSLRLSCAASGFIFLRYGMGWYRKAPGKERELVASIDSTGGSTYADSVKGRFTISRDNAKNTVYLQMNSLKPEDTAVYYCAAAYYIVSERDYWGQGTQVTVSS,low polyreactivity
15,QVQLVESGGGLVQAGGSLRLSCAASGFIFLYNAMGWYRQAPGKERELVATITSGGSTNYADSVKGRFTISRDNAKNTVYLQMNSLKPEDTAVYYCAVRRKAYYSYYYHDPYYYWGQGTQVTVSS,low polyreactivity
